{
  "source": "patent US20120277286A1",
  "about": "“COMPOSITIONS AND METHODS FOR THE TREATMENT OR PREVENTION OF MITOCHONDRIAL DISEASES” (The Government of the USA, as represented by the Secretary, …, priority 2009, published 2012)",
  "molecules": {"B1": {"name": "L347P: patient mutant of PINK1, V5-tagged (protein, UniProt Q9BXM7 78-581, looked up, variant L347P)", "Serine/threonine-protein …": "AARLQRQFVVRAWGCAGPCGRAVFLAFGLGLGLIEEKQAESRRAVSACQEIQAIFTQKSKPGPDPLDTRRLQGFRLEEYLIGQSIGKGCSAAVYEATMPTLPQNLEVTKSTGLLPGRGPGTSAPGEGQERAPGAPAFPLAIKMMWNISAGSSSEAILNTMSQELVPASRVALAGEYGAVTYRKSKRGPKQLAPHPNIIRVLRAFTSSVPLLPGALVDYPDVLPSRLHPEGLGHGRTLFLVMKNYPCTLRQYLCVNTPSPRLAAMMLLQLPEGVDHLVQQGIAHRDLKSDNILVELDPDGCPWLVIADFGCCLADESIGLQLPFSSWYVDRGGNGCLMAPEVSTARPGPRAVIDYSKADAWAVGAIAYEIFGLVNPFYGQGKAHLESRSYQEAQLPALPESVPPDVRQLVRALLQREASKRPSARVAANVLHLSLWGEHILALKNLKLDKMVGWLLQQSAATLLANRLTEKCCVETKMKMLFLANLECETLCQAALLLCSWRAAL", "modifications": "V5 tag", "notes": "patient mutant of PINK1, V5-tagged"}, "B2": {"name": "H271Q: patient mutant of PINK1, V5-tagged (protein, UniProt Q9BXM7 78-581, looked up, variant H271Q)", "Serine/threonine-protein …": "B1 Serine/threonine-protein … with H194Q, P270L", "modifications": "V5 tag", "notes": "as for B1"}, "B3": {"name": "G411S: PINK1 polymorphism, V5-tagged (protein, UniProt Q9BXM7 78-581, looked up, variant G411S)", "Serine/threonine-protein …": "B1 Serine/threonine-protein … with P270L, G334S", "modifications": "V5 tag", "notes": "PINK1 polymorphism, V5-tagged"}, "B4": {"name": "A168P: patient mutant of PINK1, V5-tagged (protein, UniProt Q9BXM7 78-581, looked up, variant A168P)", "Serine/threonine-protein …": "B1 Serine/threonine-protein … with A91P, P270L", "modifications": "V5 tag", "notes": "as for B1"}},
  "key": {"PINK1": {"tested_on": "PINK1", "assay": "PINK1 accumulation by fractionation and immunoblotting", "assay_type": "cell-based", "settings": "HeLa cells, mitochondrial membrane fraction; 10 μM CCCP or 1 μM valinomycin", "description": "(§1) For PINK1 experiments, cells were fractionated using the Mitochondria Isolation Kit (Pierce), according to manufacturer's specifications with slight modifications. To isolate integral membrane proteins, membrane fractions obtained as above were carbonate extracted with 0.1M Na2CO3 fresh cold buffer and membranes were pelleted, as described in the supplemental methods. For Parkin experiments, cells were fractionated as described previously, with minor modifications described in the supplemental methods (Narendra (2008) J Cell Biol 183: 795-803). The following primary antibodies were used: anti-Parkin (PRK8) monoclonal (Santa Cruz), anti-Tom20 polyclonal (Santa Cruz), anti-cytochrome c monoclonal (BD Biosciences), anti-PINK1 polyclonal (Novus Biologicals), anti-VDAC monoclonal (Calbiochem), anti-GAPDH polyclonal (Sigma-Aldrich), anti-Tubulin monoclonal (Sigma-Aldrich), anti-V5 monoclonal (Invitrogen), anti-GFP polyclonal (Invitrogen).\nas §1, with “with slight modifications described in the supplemental methods. To isolate” for “with slight modifications. To isolate”, “minor modifications detailed in the” for “minor modifications described in the”, “supplemental methods (Narendra (2008) J Cell Biol 183: 795-803). The protease protection assay was performed as described previously (Chen (2005) J Biol Chem 280: 26185-26192). Cells were fixed and immunostained as described previously (Narendra (2008)” for “supplemental methods (Narendra (2008)”, “anti-GFP polyclonal (Invitrogen), anti-TIM23 monoclonal (BD Biosciences), and anti-Hsp60 monoclonal (Stressgen).” for “anti-GFP polyclonal (Invitrogen).”"}, "HeLa cells": {"tested_on": "HeLa cells", "assay": "Parkin-induced mitophagy, loss of mitochondria by immunocytochemistry", "assay_type": "cell-based", "settings": "YFP-Parkin HeLa cells, 10 μM CCCP+10 mM 3-methyladenine or +100 nM Bafilomycin, 24 hours", "protocol": "Cultured cells seeded in borosilicate chamber slides (Thermo Fisher Scientific) were transfected or cotransfected with YFP-Parkin, ECFP-Parkin, mCherry-Parkin, DsRed-Mito (Clontech Laboratories, Inc.), pcDNA3.1 (Invitrogen), vMIA, and/or Drp1K38A constructs using Fugene 6 (Roche). Parkin-myc was a gift from M. Cookson (National Institutes of Health, Bethesda, Md.). Cells were fixed 12-24 hours after transfection with 4% paraformaldehyde in PBS. Cells were stained with following primary antibodies: mouse monoclonal cytochrome c (BD), rabbit polyclonal Tom20 (Santa Cruz Biotechnology, Inc.), mouse monoclonal Parkin PRK8 (Santa Cruz Biotechnology, Inc.), rabbit polyclonal PMP70 (Invitrogen), and/or mouse monoclonal TRAP1 (Abcam); and with the following secondary antibodies: mouse and/or rabbit Alexa 488, 594, and 633 (Invitrogen). For assessment of mitochondrial membrane potential, cells were pulsed with 50 nM Mito-Tracker red (Invitrogen) for 15 min, washed, and incubated for an additional 10 minutes before fixation or imaging. For assessment of cell metabolic potential, cell nuclei were stained with Hoechst 33342 (Invitrogen).\n(§2) Confocal microscopy of fixed samples, scoring of Parkin recruitment and Parkininduced mitophagy, and live cell imaging were performed as described previously (Narendra (2008) J Cell Biol 183: 795-803). Experiments in Mfn1/2 null cells were performed as described previously with minor modifications.\n(§3) Confocal microscopy of fixed samples, scoring of Parkin recruitment and Parkin-induced mitophagy, and live cell imageing were performed as described previously (Narendra (2008) J Cell Biol 183: 795-803). Experiments in Mfn1/2 null cells were performed as described previously with minor modifications described in the supplemental methods (Narendra (2008) J Cell Biol 183: 795-803)."}, "[1]": {"tested_on": "PINK1+/+ or PINK1−/− MEFs", "assay": "YFP-Parkin recruitment to mitochondria in MEFs", "assay_type": "cell-based, mouse", "settings": "20 μM CCCP, 3 hours; for reconstitution of YFP-Parkin recruitment: PINK1−/− primary MEFs co-transfected with construct", "description": "HeLa YFP-Parkin, PINK1+/+ SV40 transformed MEFs cells, PINK1−/− SV40 transformed MEF, M17 neuroblastoma control shRNA, M17 neuroblastoma PINK1, and Mfn1/2−/− MEF cell lines have been described previously (Narendra (2008) J Cell Biol 183: 795-803). PINK1+/+ and PINK1−/− primary MEFs were isolated from embryos using a standard protocol (Gautier (2008) Proc Natl Acad Sci USA 105: 11364-11369). Parkin+/+ and Parkin−/− transformed MEFs were created by isolation of primary cells from embryos of B6.129S4-Park2tm1Shn/J mice (Jackson Labs), using a standard protocol (Gautier (2008) Proc Natl Acad Sci USA 105: 11364-11369), followed by retroviral transduction of SV40 (Applied Biological Materials, Inc.). YFP-Parkin, YFPParkin mutants, mCherry-Parkin, PINK1-YFP, PINK1 KD-YFP, PINK1 Δ1-110-YFP, and Opa3-PINK1 Δ1-110-YFP are in C1 or N1 Clontech vectors. PINK1WT-V5, PINK1 KD-V5, and PINK1 Δ1-156-V5 are in pDest40 vector (Invitrogen). PINK1 patient mutations are in pLenti-V5 vector (Invitrogen). PINK1-myc is in a pCMBTNT vector (Promega).\nas §2\nHeLa YFP-Parkin, E18 Rat cortical neurons, PINK1^+/+ SV40 transformed MEFs cells, PINK1^−/− SV40 transformed MEF, M17 neuroblastoma control shRNA, M17 neuroblastoma PINK1, Mfn1/2^−/− MEF, and Parl^−/− MEF cell lines have been described previously (Narendra (2008) J Cell Biol 183: 795-803). PINK1^+/+ and PINK1^−/− primary MEFs were isolated from embryos using a standard protocol (Gautier (2008) Proc Natl Acad Sci USA 105: 11364-11369). Parkin^+/+ and Parkin^−/− transformed MEFs were created by isolation of primary cells from embryos of B6.129S4-Park2^tm1Shn/J mice (Jackson Labs), using a standard protocol (Gautier (2008) Proc Natl Acad Sci USA 105: 11364-11369), followed by retroviral transduction of SV40 (Applied Biological Materials, Inc.). YFP-Parkin, YFP-Parkin mutants, mCherry-Parkin, PINK1-YFP, PINK1 KD-YFP, PINK1 Δ1-110-YFP, and Opa3-PINK1 Δ1-110-YFP are in C1 or N1 Clontech vectors. PINK1WT-V5, PINK1 KD-V5, and PINK1 Δ1-156-V5 are in pDest40 vector (Invitrogen). PINK1 patient mutations are in the pLenti-V5 vector (Invitrogen). PINK1-myc is in a pCMBTNT vector (Promega). The PARL shRNA construct targeting (5′ […] 3′) is in the pSuper-GFP vector. To make FRB-PINK1 (111-581)-YFP and Tom20 (1-33)-FKBP, PCR fragments containing PINK1 (111-581)-YFP and Tom20 (1-33) were cloned into the BamHI site of the pC4-RHE vector and the EcoRI and XbaI sites of pC4M-F2E vectors, respectively (ARIAD Pharmaceuticals). The rapamycin analogue AP21967 was obtained from ARIAD Pharmaceuticals. The PARL shRNA construct targeting (5′ […] 3′) is in the pSuper-GFP vector (OligoEngine).\nas §3"}},
  "note": "Positions count from the first letter of the chain named. Names may count otherwise.",
  "data": [
    {"molecule": "CC(C)[C@@H]1NC(=O)[C@H](C)OC(=O)[C@@H](C(C)C)NC(=O)[C@@H](C(C)C)OC(=O)[C@H](C(C)C)NC(=O)[C@H](C)OC(=O)[C@@H](C(C)C)NC(=O)[C@@H](C(C)C)OC(=O)[C@H](C(C)C)NC(=O)[C@H](C)OC(=O)[C@@H](C(C)C)NC(=O)[C@@H](C(C)C)OC1=O", "note": "[valinomycin]", "values": [
      {"measurement": "endogenous full length PINK1 (˜63 kDa) level after depolarization", "setting": "PINK1", "value": "increased"}
    ]},
    {"molecule": "CO/C1=C\\C(C)=C\\[C@@H](C)[C@@H](O)[C@@H](C)C/C(C)=C/C=C/[C@H](OC)[C@@H]([C@@H](C)[C@@H](O)[C@H](C)[C@@]2(O)C[C@@H](O)[C@H](C)[C@@H](C(C)C)O2)OC1=O", "note": "[bafilomycin, reference compound]", "values": [
      {"measurement": "effect on Parkin-induced mitophagy", "setting": "HeLa cells", "value": "blocked"}
    ]},
    {"molecule": "Cn1cnc(N)c2ncnc1-2", "note": "[3-methyl adenine, reference compound]", "values": [
      {"measurement": "effect on Parkin-induced mitophagy", "setting": "HeLa cells", "value": "blocked"}
    ]},
    {"molecule": "B1", "values": [
      {"measurement": "reconstitution of YFP-Parkin recruitment", "setting": "[1]", "value": "failed to reconstitute"}
    ]},
    {"molecule": "B2", "values": [
      {"measurement": "reconstitution of YFP-Parkin recruitment", "setting": "[1]", "value": "failed to reconstitute"}
    ]},
    {"molecule": "B3", "values": [
      {"measurement": "YFP-Parkin recruited to mitochondria, % of cells", "setting": "[1]; PINK1−/− primary MEFs expressing the PINK1 construct", "value": "74.2±5.4", "unit": "%"}
    ]},
    {"molecule": "B4", "values": [
      {"measurement": "reconstitution of YFP-Parkin recruitment", "setting": "[1]", "value": "failed to reconstitute"}
    ]}
  ]
}
